# Test results as given in US20230323466A1, “DETERMINING CANCER RESPONSIVENESS TO TREATMENT” (Queensland University of Technology, priority 2020, published 2023).
# B1: EGF: an EGFR ligand (protein, UniProt P01133 23-1207, looked up)
# Pro-epidermal growth factor: PQHWSCPEGTLAGNGNSTCVGPAPFLIFSHGNSIFRIDTEGTNYEQLVVDAGVSVIMDFHYNEKRIYWVDLERQLLQRVFLNGSRQERVCNIEKNVSGMAINWINEEVIWSNQQEGIITVTDMKGNNSHILLSALKYPANVAVDPVERFIFWSSEVAGSLYRADLDGVGVKALLETSEKITAVSLDVLDKRLFWIQYNREGSNSLICSCDYDGGSVHISKHPTQHNLFAMSLFGDRIFYSTWKMKTIWIANKHTGKDMVRINLHSSFVPLGELKVVHPLAQPKAEDDTWEPEQKLCKLRKGNCSSTVCGQDLQSHLCMCAEGYALSRDRKYCEDVNECAFWNHGCTLGCKNTPGSYYCTCPVGFVLLPDGKRCHQLVSCPRNVSECSHDCVLTSEGPLCFCPEGSVLERDGKTCSGCSSPDNGGCSQLCVPLSPVSWECDCFPGYDLQLDEKSCAASGPQPFLLFANSQDIRHMHFDGTDYGTLLSQQMGMVYALDHDPVENKIYFAHTALKWIERANMDGSQRERLIEEGVDVPEGLAVDWIGRRFYWTDRGKSLIGRSDLNGKRSKIITKENISQPRGIAVHPMAKRLFWTDTGINPRIESSSLQGLGRLVIASSDLIWPSGITIDFLTDKLYWCDAKQSVIEMANLDGSKRRRLTQNDVGHPFAVAVFEDYVWFSDWAMPSVMRVNKRTGKDRVRLQGSMLKPSSLVVVHPLAKPGADPCLYQNGGCEHICKKRLGTAWCSCREGFMKASDGKTCLALDGHQLLAGGEVDLKNQVTPLDILSKTRVSEDNITESQHMLVAEIMVSDQDDCAPVGCSMYARCISEGEDATCQCLKGFAGDGKLCSDIDECEMGVPVCPPASSKCINTEGGYVCRCSEGYQGDGIHCLDIDECQLGEHSCGENASCTNTEGGYTCMCAGRLSEPGLICPDSTPPPHLREDDHHYSVRNSDSECPLSHDGYCLHDGVCMYIEALDKYACNCVVGYIGERCQYRDLKWWELRHAGHGQQQKVIVVAVCVVVLVMLLLLSLWGAHYYRTQKLLSKNPKNPYEESSRDVRSRRPADTEDGMSSCPQPWFVVIKEHQDLKNGGQPVAGEDGQAADGSMQPTSWRQEPQLCGMGTEQGCWIPVSSDKGSCPQVMERSFHMPSYGTQTLEGGVEKPHSLLSANPLWQQRALDPPHQMELTQ
# modifications: Pro-epidermal growth factor
# notes: an EGFR ligand
# Tested on: EGFR
# Assay: EGF stimulation of EGFR wildtype cells, western blot of CDCA3 (FIG. 11)
# Format: cell-based
# Conditions: EGFR wildtype cells stimulated with EGF
# Description: FIG. 11. CDCA3 levels are elevated in EGFR^mutNSCLC cell lines. Stimulation of receptor tyrosine kinase (RTK) signalling in EGFR wildtype cells induces the upregulation of CDCA3 protein.
# The current Example examined whether elevated CDCA3 was as a result of activating mutations in epidermal growth factor receptor (EGFR) that solely occur in cases of NSCLC adenocarcinoma. In in vitro models of disease, CDCA3 protein levels were examined by western blot analysis and it was identified that CDCA3 protein is markedly elevated in EGFR mutant NSCLC cell lines versus EGFR wildtype cell lines (FIG. 11). The present inventors also identified that stimulation of EGFR wildtype cells with EGF, an EGFR ligand, induced PI3K-Akt downstream signal transduction and the upregulation of CDCA3 protein. PI3K-Akt was constitutively activated in EGFR mutant NSCLC cell lines.
molecule,measurement,value
B1,CDCA3 protein,upregulation
